Assay [1] has as its target two different p53 missense mutations (A161T and R175H) expressed in U266 and OPM2 multiple myeloma cells. Briefly: cell-based or functional assay.
The next assay deals with Full length p53. The experiment in a line: MST; FIG. 3B. Particulars: chains peptide; modification not given.

This note sets out measurements from patent publication US20220251159A1.

No end group written: not given here. *: point of attachment. Myristoyl = CCCCCCCCCCCCCC(=O)*

With Myristoyl-RRHSTPHPD [pCAP 250 (SEQ ID NO: 1)], the IC50, cell viability (CellTiter-Glo, 72 h) of multiple myeloma cell lines in assay [1] lay in the range of 1.5 to 3 µM.
In turn, RRHSTPHPD [pCAP250] gave a Kd in the assay with Full length p53 of 30 µM.

As usually defined, the Kd is the free concentration of one partner at which half of the binding sites on the other are occupied at equilibrium, for simple one-to-one binding. Lower therefore signals a tighter complex.
